Assays:
[1] = biological target: Cfl1 (Cif-like epoxide hydrolase 1) from Burkholderia cenocepacia strain J2315 / K56-2 (Burkholderia cenocepacia strain K56-2 (identical to strain J2315)); test: crystal structure; hanging drop vapor diffusion; X-ray, 2.2 Å; molecular replacement with a Cif monomer
[2] = biological target: Cfl2 (Cif-like epoxide hydrolase 2) from Burkholderia cenocepacia strain HI2424 (Burkholderia cenocepacia strain HI2424); test: as above

Cfl1 (Cif-like epoxide hydrolase 1) from Burkholderia cenocepacia strain J2315 / K56-2 (enzyme)
stoichiometry N [1]: 8

Cfl2 (Cif-like epoxide hydrolase 2) from Burkholderia cenocepacia strain HI2424 (enzyme)
stoichiometry N [2]: 10

Source: article PMC8244358
